Data taken from ChEMBL document CHEMBL1152764, “Penicilliols A and B, novel inhibitors specific to mammalian Y-family DNA polymerases” (Bioorg Med Chem, 2009).

Legend:
[1] = substrate: C/C=C/C(=O)C1=C(OC)OC(C)(/C=C/C=C/C(C)O)C1=O; assay: Activity of mouse DNA polymerase iota using dTTP substrate at 5 uM by Lineweaver-Burke plot
[2] = substrate: C/C=C/C(=O)C1=C(OC)OC(C)(/C=C/C=C/C(C)O)C1=O; assay: Activity of mouse DNA polymerase iota using poly(dA/oligo(dT) substrate at 15 uM by Lineweaver-Burke plot
[3] = substrate: C/C=C/C(=O)C1=C(OC)OC(C)(/C=C/C=C/C(C)O)C1=O; assay: Activity of mouse DNA polymerase iota using dTTP substrate at 15 uM by Lineweaver-Burke plot
[4] = substrate: C/C=C/C(=O)C1=C(OC)OC(C)(/C=C/C=C/C(C)O)C1=O; assay: Activity of mouse DNA polymerase iota using poly(dA/oligo(dT) substrate at 10 uM by Lineweaver-Burke plot
[5] = substrate: C/C=C/C(=O)C1=C(OC)OC(C)(/C=C/C=C/C(C)O)C1=O; assay: Activity of mouse DNA polymerase iota using dTTP substrate at 10 uM by Lineweaver-Burke plot
[6] = substrate: C/C=C/C(=O)C1=C(OC)OC(C)(/C=C/C=C/C(C)O)C1=O; assay: Activity of mouse DNA polymerase iota using poly(dA/oligo(dT) substrate at 5 uM by Lineweaver-Burke plot

B1: DNA polymerase iota (Mus musculus), Q6R3M4 (protein)
chain: MEPLHAGAAGSSRAVCSQGPPTQISSSRVIVHVDLDCFYAQVEMISNPELKDRPLGVQQKYLVVTCNYEARKLGVRKLMNVRDAKEKCPQLVLVNGEDLSRYREMSYKVTELLEEFSPAVERLGFDENFVDLTEMVEKRLQQLPSEEVPSVTVFGHVYNNQSVNLHNIMHRRLVVGSQIAAEMREAMYNQLGLTGCAGVAPNKLLAKLVSGVFKPNQQTVLLPESCQHLIHSLNHIKEIPGIGYKTAKRLEVLGINSVHDLQTFPIKTLEKELGIAIAQRIQQLSFGEDKSPVTPSGPPQSFSEEDTFKKCSSEVEAKAKIEELLSSLLTRVCQDGRKPHTVRLVIRRYSDKHCNRESRQCPIPSHVIQKLGTGNHDSMPPLIDILMKLFRNMVNVKMPFHLTLMSVCFCNLKALSSAKKGPMDCYLTSLSTPAYTDKRAFKVKDTHTEDSHKEKEANWDCLPSRRIESTGTGESPLDATCFPKEKDTSDLPLQALPEGVDQEVFKQLPADIQEEILYGKSRENLKGKGSLSCPLHASRGVLSFFSTKQMQASRLSPRDTALPSKRVSAASPCEPGTSGLSPGSTSHPSCGKDCSYYIDSQLKDEQTSQGPTESQGCQFSSTNPAVSGFHSFPNLQTEQLFSTHRTVDSHKQTATASHQGLESHQGLESRELDSAEEKLPFPPDIDPQVFYELPEEVQKELMAEWERAGAARPSAHR
Work on B1 yielded a Vmax [1] of 35.7 pmol/h, a Vmax [2] of 14.8 pmol/h and a Vmax [3] of 22.5 pmol/h. For the same protein, the Vmax [4] was 20 pmol/h, the Vmax [5] was 27.6 pmol/h and the Vmax [6] was 31.1 pmol/h.
